# Data reported in US20150344570A1 (published 2015).
# Positions count from the first letter of the chain named. Numbers in names are those of the source.
# T1: FcgRIIb (human, UniProt P31994 43-217)
# T1 construct: extracellular domain; Soluble extracellular domain with C-terminal His tag, expressed in FreeStyle293 cells; also called FcγRIIb; 2b; not shown: His tag at the C terminus
# T1 sequence (looked up): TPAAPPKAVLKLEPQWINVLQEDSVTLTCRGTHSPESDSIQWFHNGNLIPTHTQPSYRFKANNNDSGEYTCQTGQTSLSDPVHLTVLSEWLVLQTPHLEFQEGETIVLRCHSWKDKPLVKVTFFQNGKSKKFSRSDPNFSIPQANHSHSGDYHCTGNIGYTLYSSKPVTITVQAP
# T2: FcgRIIaR (human, UniProt P12318 34-217)
# T2 construct: extracellular domain; Soluble extracellular domain with C-terminal His tag, expressed in FreeStyle293 cells; also called FcγRIIa R; FcgRIIa type R; not shown: His tag at the C terminus
# T2 sequence (looked up): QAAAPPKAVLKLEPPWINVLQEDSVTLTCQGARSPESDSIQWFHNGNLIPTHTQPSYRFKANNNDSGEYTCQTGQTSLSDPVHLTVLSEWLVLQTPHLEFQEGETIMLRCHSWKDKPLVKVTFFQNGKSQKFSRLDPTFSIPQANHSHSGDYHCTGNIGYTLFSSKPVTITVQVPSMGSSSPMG
# T3: FcγRIIa R (FcγRIIa allotype with Arg at position 131), extracellular domain with C-terminal His tag (human, UniProt P12318 34-217)
# T3 chain: T2 sequence (looked up)
# T4: FcgRIIa H (human, UniProt P12318 34-217)
# T4 construct: extracellular domain; also called FcγRIIa H; FcγRIIa type H
# T4 sequence (looked up): T2 sequence (looked up) with R134H
# T5: FcgRIIa R (human, UniProt P12318 34-217)
# T5 construct: extracellular domain; also called FcγRIIa R; FcγRIIa type R
# T5 sequence (looked up): T2 sequence (looked up)
# T6: FcgRIIb (human, UniProt P31994 43-217)
# T6 construct: extracellular domain; also called FcγRIIb; CD32B
# T6 sequence (looked up): T1 sequence (looked up)
# T7: FcγRIIb, extracellular domain with C-terminal His tag (human, UniProt P31994 43-217)
# T7 construct: extracellular domain; also called FcgRIIb; 2b; not shown: His tag attached to the C terminus
# T7 sequence (looked up): T1 sequence (looked up)
# B1: IL6R-BP256/IL6R-L (antibody, human IgG1, kappa)
# heavy: QVQLQESGPGLVKPSETLSLTCAVSGHSISHDHAWSWVRQPPGEGLEWIGFISYSGITNYNPSLQGRVTISRDNSKNTLYLQMNSLRAEDTAVYYCARSLARTTAMDYWGEGTLVTVSSASTKGPSVFPLAPSSKSTSGGTAALGCLVKDYFPEPVTVSWNSGALTSGVHTFPAVLQSSGLYSLSSVVTVPSSSLGTQTYICNVNHKPSNTKVDKKVEPKSCDKTHTCPPCPAPDLLGDDDVFLFPPKPKDTLMISRTPEVTCVVVDVSDEDGEVKFNWYVDGVEVHNAKTKPREEQYNSTYRVVSVLTVLHQDWLNGKEYKCKVSNKALPRPIEKTISKAKGQPREPQVYTLPPSRDELTKNQVSLTCLVKGFYPSDIAVEWESNGQPENNYKTTPPVLDSDGSFFLYSKLTVDKSRWQQGNVFSCSVMHEALHNHYTQESLSLSP
# light: not shown
# notes: Homodimerized antibody, S239D in both H chains
# B2: IL6R-BP257/IL6R-L (antibody, human IgG1, kappa)
# heavy: B1 heavy with D241E
# light: not shown
# notes: Homodimerized antibody, S239E in both H chains
# B3: GpH7-A5/GpH7-B3 variant L328_13S/GpL16-k0 (heterodimerized antibody He Ab, L328S in one H chain) (antibody, human IgG1, kappa)
# heavy 1: not shown
# heavy 2: not shown
# light: DIVMTQSPLSLPVTPGEPASISCQASESLVHSNRNTYLHWYLQKPGQSPQLLIYKVSNRFSGVPDRFSGSGSGTDFTLKISRVEAEDVGVYYCSQNTHVPPTFGQGTKVEIERTVAAPSVFIFPPSDEQLKSGTASVVCLLNNFYPREAKVQWKVDNALQSGNSQESVTEQDSKDSTYSLSSTLTLSKADYEKHKVYACEVTHQGLSSPVTKSFNRGEC
# notes: Anti-glypican-3 human IgG1-type antibody; the alteration is in only one of the two H chains (the GpH7-B3 chain)
# B4: GpH7-A5/GpH7-B3 variant I332_11K/GpL16-k0 (heterodimerized antibody He Ab, I332K in one H chain) (antibody, human IgG1, kappa)
# heavy 1: not shown
# heavy 2: not shown
# light: B3 light
# notes: as for B3
# B5: GpH7-A5/GpH7-B3 variant L328_15Y/GpL16-k0 (heterodimerized antibody He Ab, L328Y in one H chain) (antibody, human IgG1, kappa)
# heavy 1: not shown
# heavy 2: not shown
# light: B3 light
# notes: as for B3
# B6: GpH7-A5/GpH7-B3 variant L328_18N/GpL16-k0 (heterodimerized antibody He Ab, L328N in one H chain) (antibody, human IgG1, kappa)
# heavy 1: not shown
# heavy 2: not shown
# light: B3 light
# notes: as for B3
# B7: GpH7-A5/GpH7-B3 variant L328_20W/GpL16-k0 (heterodimerized antibody He Ab, L328W in one H chain) (antibody, human IgG1, kappa)
# heavy 1: not shown
# heavy 2: not shown
# light: B3 light
# notes: as for B3
# B8: GpH7-Kn032/GpH7-Hl032/GpL16-k0 (antibody, human IgG1, kappa)
# heavy 1: QVQLVQSGAEVKKPGASVTVSCKASGYTFTDYEMHWIRQPPGEGLEWIGAIDPKTGDTAYSESFQDRVTLTADKSTSTAYMELSSLTSEDTAVYYCTRFYSYTYWGQGTLVTVSSASTKGPSVFPLAPSSKSTSGGTAALGCLVKDYFPEPVTVSWNSGALTSGVHTFPAVLQSSGLYSLSSVVTVPSSSLGTQTYICNVNHKPSNTKVDKKVEPKSCDKTHTCPPCPAPELLGGPDVFLFPPKPKDTLMISRTPEVTCVVVDVSHEDPEVKFNWYVDGVEVHNAKTKPREEQYNSTYRVVSVLTVLHQDWLNGKEYKCKVSNKALPLPEEKTISKAKGQPREPQVCTLPPSRDELTKNQVSLWCLVKGFYPSDIAVEWESNGQPENNYKTTPPVLDSDGSFFLYSKLTVDKSRWQQGNVFSCSVMHEALHNHYTQKSLSLSP
# heavy 2: B8 heavy 1 with C347Y, D354C, W364S, L366A, Y405V
# light: B3 light
# notes: also called Kn032/Hl032
# B9: GpH7-Kn037/GpH7-Hl036/GpL16-k0 (antibody, human IgG1, kappa)
# heavy 1: B8 heavy 1 with G234A, L328A
# heavy 2: B8 heavy 1 with G234A, L328A, C347Y, D354C, W364S, L366A, Y405V
# light: B3 light
# notes: also called Kn037/Hl036
# B10: GpH7-Kn045/GpH7-Hl048/GpL16-k0 (antibody, human IgG1, kappa)
# heavy 1: B8 heavy 1 with L232Y, L233Y, G234A, D237S, H266D, S296A, L328A, E330I
# heavy 2: B8 heavy 1 with G234A, L328K, C347Y, D354C, W364S, L366A, Y405V
# light: B3 light
# notes: Heterodimerized antibody: knob chain L234Y/L235Y/G236A/H268D/S298A, hole chain G236A/S239D/A330K/I332E; also called Kn045/Hl048
# B11: GpH7-Kn045/GpH7-Hl055/GpL16-k0 (antibody, human IgG1, kappa)
# heavy 1: B8 heavy 1 with L232Y, L233Y, G234A, D237S, H266D, S296A, L328A, E330I
# heavy 2: B8 heavy 1 with G234A, Q293L, L328M, C347Y, D354C, W364S, L366A, Y405V
# light: B3 light
# notes: Heterodimerized antibody: knob chain L234Y/L235Y/G236A/H268D/S298A, hole chain G236A/S239D/Q295L/A330M/I332E; also called Kn045/Hl055
# B12: GpH7-Kn056/GpH7-Hl055/GpL16-k0 (antibody, human IgG1, kappa)
# heavy 1: B8 heavy 1 with L232Y, L233Y, G234A, D237S, H266D, Q293L, S296A, L328A, E330I
# heavy 2: B8 heavy 1 with G234A, Q293L, L328M, C347Y, D354C, W364S, L366A, Y405V
# light: B3 light
# notes: Heterodimerized antibody: knob chain L234Y/L235Y/G236A/H268D/Q295L/S298A, hole chain G236A/S239D/Q295L/A330M/I332E; also called Kn056/Hl055
# Target: T1, FcgRIIb
# Assay: SPR (Biacore); KD of the variant for FcgRIIaR divided by its KD for FcgRIIb
row,Binder,KD(IIaR)/KD(IIb)
1,B1,8.4
2,B2,3

# Target: T1, FcgRIIb
# Assay: SPR (Biacore), antibody captured on chip, FcgR extracellular domain as analyte
row,Binder,Relative KD (KD of IL6R-B3/IL6R-L divided by KD of the variant)
1,B1,35.7
2,B2,7.2

# Target: T2, FcgRIIaR
# Assay: as above
row,Binder,Relative KD (KD of IL6R-B3/IL6R-L divided by KD of the variant)
1,B1,1.5
2,B2,0.9

# Target: T3, FcγRIIa R (FcγRIIa allotype with Arg at …)
# Assay: SPR (Biacore T100); ratio of He/Con for FcγRIIa R to He/Con for FcγRIIb of the same antibody
row,Binder,He_2aR/2b (IIaR/IIb)
1,B3,0.78
2,B4,0.61
3,B5,0.7
4,B6,0.73
5,B7,0.66

# Target: T8, FcgRIa (human, UniProt P12314 16-292)
# T8 construct: extracellular domain; also called FcγRIa; FcγRI
# T8 sequence (P12314 16-292): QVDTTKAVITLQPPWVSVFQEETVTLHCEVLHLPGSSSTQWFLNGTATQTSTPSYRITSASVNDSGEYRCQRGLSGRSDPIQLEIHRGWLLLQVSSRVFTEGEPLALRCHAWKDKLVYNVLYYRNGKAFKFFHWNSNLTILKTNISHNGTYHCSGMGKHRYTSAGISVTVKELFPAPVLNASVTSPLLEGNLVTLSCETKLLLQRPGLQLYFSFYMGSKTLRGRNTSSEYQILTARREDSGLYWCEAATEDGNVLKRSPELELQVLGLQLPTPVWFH
# Assay: SPR (Biacore); KD of GpH7-Kn033/GpH7-Hl033/GpL16-k0 for this FcγR divided by KD of this antibody
# Protocol: (§1) These antibodies were assessed for the binding activity to each FcγR according to the method described in Reference Example 2.
# (§2) Analysis of interaction between objective antibody and the FcγR was carried out using Biacore T100 (GE Healthcare). HBS-EP+ (GE Healthcare) was used as the running buffer, and the measurement temperature was set to 25° C. Chips produced by immobilizing the antigen peptide by the amine coupling method to a Series S Sencor Chip CM5 (GE Healthcare), or alternatively, chips produced by allowing preliminarily biotinylated antigen peptides to interact with and immobilize onto a Series S Sensor Chip SA (certified) (GE Healthcare) were used. Antibodies of interest were captured onto an antigen peptide-immobilized chip, and allowed to interact to each FcγR diluted with running buffer. To regenerate and repeatedly use the chip, the antibodies captured on the chip were washed off by reacting 10 mM glycine-HCl, pH 1.5.
row,Binder,KD ratio
1,B8,24 fold
2,B9,6 fold
3,B10,3.7 fold
4,B11,3.7 fold
5,B12,2.9 fold

# Target: T4, FcgRIIa H
# Assay: as above
# Protocol: as §1, §2
row,Binder,KD ratio
1,B8,1.2 fold
2,B9,22 fold
3,B10,52 fold
4,B11,21 fold
5,B12,20 fold

# Target: T5, FcgRIIa R
# Assay: as above
# Protocol: as §1, §2
row,Binder,KD ratio
1,B8,3 fold
2,B9,43 fold
3,B10,154 fold
4,B11,56 fold
5,B12,44 fold

# Target: T6, FcgRIIb
# Assay: as above
# Protocol: as §1, §2
row,Binder,KD ratio
1,B8,8.2 fold
2,B9,16 fold
3,B10,34 fold
4,B11,15 fold
5,B12,14 fold

# Target: T9, FcgRIIIa F (human, UniProt P08637 17-208)
# T9 construct: extracellular domain; also called FcγRIIIa F; FcγRIIIaF
# T9 sequence (P08637 17-208): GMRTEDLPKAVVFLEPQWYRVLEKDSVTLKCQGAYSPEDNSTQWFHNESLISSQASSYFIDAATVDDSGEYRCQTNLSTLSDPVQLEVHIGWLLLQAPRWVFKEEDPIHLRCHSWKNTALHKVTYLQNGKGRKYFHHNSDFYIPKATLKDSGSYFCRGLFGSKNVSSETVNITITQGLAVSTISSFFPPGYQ
# Assay: as above
# Protocol: as §1, §2
row,Binder,KD ratio
1,B8,381 fold
2,B9,161 fold
3,B10,419 fold
4,B11,985 fold
5,B12,1110 fold

# Target: T10, FcgRIIIa V (human, UniProt P08637 17-208)
# T10 construct: extracellular domain; also called FcγRIIIa V; FcγRIIIaV
# T10 sequence (P08637 17-208 F176V limits assumed): as the sequence (P08637 17-208) above, with F160V counted along it
# Assay: as above
# Protocol: as §1, §2
row,Binder,KD ratio
1,B8,182 fold
2,B9,84 fold
3,B10,170 fold
4,B11,300 fold
5,B12,327 fold

# Target: T7, FcγRIIb, extracellular domain with …
# Assay: SPR (Biacore T100), antibody captured on antigen peptide chip, FcγR as analyte; binding amount relative to control heterodimerized antibody
# Protocol: (§3) The heterodimerized antibodies He Abs in which one of the H chains was introduced with an alteration were assayed for their binding activities to each activating FcγR and inhibitory FcγR according to the method described in Example 4. […] The activating FcγRs in FIGS. 26, 27, 28, and 29 are FcγRIa, FcγRIIa (R), FcγRIIa (H), and FcγRIIIa, respectively.
# as §2
row,Binder,He/Con_2b (IIb binding)
1,B3,"149 relative binding activity, GpH7-A5/GpH7-B3/GpL16-k0 = 100"
2,B4,"70.9 relative binding activity, GpH7-A5/GpH7-B3/GpL16-k0 = 100"
3,B5,"193 relative binding activity, GpH7-A5/GpH7-B3/GpL16-k0 = 100"
4,B6,"80.8 relative binding activity, GpH7-A5/GpH7-B3/GpL16-k0 = 100"
5,B7,"235 relative binding activity, GpH7-A5/GpH7-B3/GpL16-k0 = 100"

# Target: T3, FcγRIIa R (FcγRIIa allotype with Arg at …)
# Assay: as above
# Protocol: as §3, §2
row,Binder,He/Con_2aR (IIaR binding)
1,B3,"117 relative binding activity, GpH7-A5/GpH7-B3/GpL16-k0 = 100"
2,B4,"43.1 relative binding activity, GpH7-A5/GpH7-B3/GpL16-k0 = 100"
3,B5,"136 relative binding activity, GpH7-A5/GpH7-B3/GpL16-k0 = 100"
4,B6,"59.4 relative binding activity, GpH7-A5/GpH7-B3/GpL16-k0 = 100"
5,B7,"155 relative binding activity, GpH7-A5/GpH7-B3/GpL16-k0 = 100"
